Measured values as given in publication PMC5331220, “Oxidation of F-actin controls the terminal steps of cytokinesis” (Nature Communications, 2017).
Changes are numbered by the printed parent chain. In names and notes the source's numbering stands. Several values for one entry are separate records, joined by “and”; a condition that tells them apart may be missing. Identical values can stand only once.

T1: His-tagged MICAL1^FAD-CH-LIM (MICAL1^1–843) (human, UniProt Q8TDZ2 1-843)
T1 construct: MICAL1, human, amino acids 1-843 (monooxygenase/FAD, CH and LIM domains); also called 6xHis-MICAL1^FAD-CH-LIM; source: E. coli BL21-AI, purified (Ni-NTA magnetic agarose beads)
T1 sequence (looked up): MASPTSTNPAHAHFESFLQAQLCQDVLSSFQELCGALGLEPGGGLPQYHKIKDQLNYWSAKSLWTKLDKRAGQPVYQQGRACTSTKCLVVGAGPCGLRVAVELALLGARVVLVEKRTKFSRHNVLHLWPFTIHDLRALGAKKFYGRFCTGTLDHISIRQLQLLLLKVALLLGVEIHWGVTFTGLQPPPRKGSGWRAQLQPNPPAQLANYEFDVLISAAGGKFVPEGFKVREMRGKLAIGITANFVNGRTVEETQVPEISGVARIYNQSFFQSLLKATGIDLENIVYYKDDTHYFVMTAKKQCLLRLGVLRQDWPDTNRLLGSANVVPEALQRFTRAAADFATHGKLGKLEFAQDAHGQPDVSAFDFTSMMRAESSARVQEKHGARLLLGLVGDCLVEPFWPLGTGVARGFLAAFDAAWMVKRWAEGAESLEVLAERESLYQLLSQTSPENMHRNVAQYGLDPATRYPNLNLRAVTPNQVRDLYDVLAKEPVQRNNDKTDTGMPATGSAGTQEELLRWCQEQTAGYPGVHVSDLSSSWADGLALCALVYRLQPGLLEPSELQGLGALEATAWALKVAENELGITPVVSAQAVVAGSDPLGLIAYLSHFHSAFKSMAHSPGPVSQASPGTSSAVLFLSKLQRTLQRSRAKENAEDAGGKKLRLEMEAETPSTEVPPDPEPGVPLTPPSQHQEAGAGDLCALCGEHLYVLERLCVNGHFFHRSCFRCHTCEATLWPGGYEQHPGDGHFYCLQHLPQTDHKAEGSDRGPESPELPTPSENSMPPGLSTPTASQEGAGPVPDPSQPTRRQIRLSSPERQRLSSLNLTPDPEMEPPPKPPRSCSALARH

T2: MICAL1^879-1067 wild-type (human, UniProt Q8TDZ2 879-1067)
T2 construct: source: E. coli BL21-CodonPlus-RILP or BL21-Gold, purified (HisTrap, rTEV cleavage, Superdex-75); not shown: His6, N-terminal, cleaved
T2 sequence (looked up): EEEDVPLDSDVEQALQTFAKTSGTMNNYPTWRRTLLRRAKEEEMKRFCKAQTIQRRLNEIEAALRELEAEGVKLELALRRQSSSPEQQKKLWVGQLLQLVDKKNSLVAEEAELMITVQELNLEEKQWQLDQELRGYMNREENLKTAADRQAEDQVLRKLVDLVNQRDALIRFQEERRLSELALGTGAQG

B1: GST-tagged MICAL1^879–1067 (domain or fragment, human, UniProt Q8TDZ2 879-1067, looked up)
chain: T2 sequence (looked up)
notes: source: E. coli BL21-AI, purified (glutathione Sepharose 4B)
B2: MICAL1^918-1067 wild-type (C-terminal domain of human MICAL1) (domain or fragment, UniProt Q8TDZ2 918-1067, looked up)
chain: KEEEMKRFCKAQTIQRRLNEIEAALRELEAEGVKLELALRRQSSSPEQQKKLWVGQLLQLVDKKNSLVAEEAELMITVQELNLEEKQWQLDQELRGYMNREENLKTAADRQAEDQVLRKLVDLVNQRDALIRFQEERRLSELALGTGAQG
notes: also called C-term MICAL1; source: E. coli BL21-CodonPlus-RILP or BL21-Gold, purified (HisTrap, rTEV cleavage, Superdex-75); not shown: His6, N-terminal, cleaved
B3: MICAL1^918-1067 S1 mutant (E946K, V950D, E953K, V971E, L975R, V978E) (domain or fragment, human, UniProt Q8TDZ2 918-1067, looked up)
chain: B2 chain with E29K, V33D, E36K, V54E, L58R, V61E
notes: the supplement and the results print V978E; source: E. coli BL21-CodonPlus-RILP or BL21-Gold, purified (HisTrap, rTEV cleavage, Superdex-75); not shown: His6, N-terminal, cleaved
B4: Rab35^1-175 (domain or fragment)
chain: not shown
notes: Rab35 GTPase, human, residues 1-175 (lacks the last 26 aa); Loaded with GppNHp (assay a1) or with GDP (assay a2); also called GppNHp-Rab35 1-175; GDP-Rab35 1-175; source: E. coli BL21-CodonPlus-RILP or BL21-Gold, purified (HisTrap, rTEV cleavage, Superdex-75); not shown: His6, N-terminal, cleaved
B5: Rab35^1-199 (domain or fragment)
chain: not shown
notes: Rab35 GTPase, human, residues 1-199; Loaded with GppNHp; also called GppNHp-Rab35 1-199; source: E. coli BL21-CodonPlus-RILP or BL21-Gold, purified (HisTrap, rTEV cleavage, Superdex-75); not shown: His6, N-terminal, cleaved

Columns and labels:
Details in all cases: both partners purified
[1] = target: T1, His-tagged MICAL1^FAD-CH-LIM …; assay: pull-down; GST-MICAL1^879–1067 on glutathione Sepharose 4B beads, incubated with 6xHis-MICAL1^FAD-CH-LIM alone or with increasing amounts of Rab35-GppNHp in 50 mM Tris pH 8, 150 mM NaCl, 2 mM MgCl2, 1 mM DTT; anti-6xHis and anti-Rab35 blots
Rab35^1-175 = target: B4; assay: ITC; MicroCal ITC-200, 10 °C; C-terminal MICAL1 domain 60 μM in the cell, GppNHp-Rab35 480 μM added in 2 μl aliquots; 50 mM Tris pH 8, 150 mM NaCl, 2 mM MgCl2, 2 mM TCEP, 5% glycerol; one-site model
Rab35^1-199 = target: B5; assay: as above
[2] = target: T2, MICAL1^879-1067 wild-type; assay: as above
[3] = target: B2; assay: as above
[4] = target: B3; assay: as above

Sequence of Rab35^1-175 (Q15286 1-175): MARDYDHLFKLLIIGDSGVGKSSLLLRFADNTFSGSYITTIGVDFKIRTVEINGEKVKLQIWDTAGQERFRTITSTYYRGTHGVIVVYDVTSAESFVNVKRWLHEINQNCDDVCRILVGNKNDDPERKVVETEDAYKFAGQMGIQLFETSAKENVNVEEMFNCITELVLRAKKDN
Sequence of Rab35^1-199 (Q15286 1-199): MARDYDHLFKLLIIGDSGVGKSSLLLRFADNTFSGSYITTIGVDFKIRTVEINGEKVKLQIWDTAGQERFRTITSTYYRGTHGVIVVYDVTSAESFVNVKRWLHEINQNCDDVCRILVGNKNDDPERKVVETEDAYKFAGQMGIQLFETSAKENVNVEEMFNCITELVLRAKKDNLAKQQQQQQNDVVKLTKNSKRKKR

Binder: B1
binding result [1]: binds

Binder: B2
Kd (Rab35^1-175): 8.3 µM and 4.5 µM
Kd (Rab35^1-199): 4.5 µM and 5 µM and 4.8 µM

Binder: B3
Kd (Rab35^1-175): 7.9 µM and 6.4 µM and 7.2 µM

Binder: B4
Kd [2]: 13 µM
stoichiometry N [2]: 0.8
stoichiometry N [3]: 1.09
stoichiometry N [4]: 0.95

Binder: B5
stoichiometry N [3]: 1.07
